Experimental findings from patent US20140341888A1 (CORNING, published 2014) are described below.

The target in one assay is T1, EGFR-AP fusion protein (UniProt P00533 25-645).
T1 construct: Immobilized on the BIAcore sensor chip; construct not described
In words: SPR (BIAcore), EGFR-AP immobilized, antibody 1.5 nM to 100 nM. A general note: In SPR one partner is held on a chip, and binding of the other changes the refractive index at the surface.

For assay [1], the target named is T2, recombinant soluble hTNFSF13b (native) (human, UniProt Q9Y275 134-285).
T2 construct: also called huTNFSF13b; Human TNFSF13b
T2 sequence (Q9Y275 134-285 limits assumed): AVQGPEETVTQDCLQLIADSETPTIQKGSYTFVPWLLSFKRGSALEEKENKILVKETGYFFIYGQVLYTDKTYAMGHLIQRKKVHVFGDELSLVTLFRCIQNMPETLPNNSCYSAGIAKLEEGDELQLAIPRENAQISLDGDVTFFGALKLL
In words: SPR (BIAcore 2000), antibody captured by anti-human IgG Fc, hTNFSF13b from 50 nM, Langmuir 1:1 model.

B1: IMC-11F8 IgG (antibody, V domains shown)
VH: QVQLQESGPGLVKPSQTLSLTCTVSGGSISSGDYYWSWIRQPPGKGLEWIGYIYYSGSTDYNPSLKSRVTMSVDTSKNQFSLKVNSVTAADTAVYYCARVSIFGVGTFDYWGQGTLVTVSS
VL: EIVMTQSPATLSLSPGERATLSCRASQSVSSYLAWYQQKPGQAPRLLIYDASNRATGIPARFSGSGSGTDFTLTISSLEPEDFAVYYCHQYGSTPLTFGGGTKAEIK
Broadly, the Kd is the concentration at which binding is half-saturated. One may read the koff as the first-order rate constant of dissociation. What is called kon is the second-order rate constant of association. On to B1, for which, in the assay with EGFR-AP fusion protein, binding was characterised by a dissociation constant (Kd) of 0.00032 µM, the koff amounted to 0.00058 s⁻¹ and the kon was found to be 1.86e+06 M⁻¹ s⁻¹.

B2: 4A5-3.1.1-B4 (antibody, V domains shown)
VH: QVQLQQWGAGLLKPSETLSLTCAVYGGSFSGYYWSWIRQPPGKGLEWIGEINHSGSTNYNPSLKSRVTISVDTSKNQFSLKLSSVTAADTAVYYCARGYYDILTGYYYYFDYWGQGTLVTVSS
VL: EIVLTQSPATLSLSPGERATLSCRASQSVSRYLAWYQQKPGQAPRLLIYDASNRATGIPARFSGSGSGTDSTLTISSLEPEDFAVYYCQQRSNWPRTFGQGTKVEIKR
As for B2, the Kd in assay [1] is 38 µM.
